Test results: publication PMC8854693

Biological target: intact GluN1b-GluN2B NMDA receptor (rat) (UniProt Q00960)
Sequence (Q00960 whole entry, looked up): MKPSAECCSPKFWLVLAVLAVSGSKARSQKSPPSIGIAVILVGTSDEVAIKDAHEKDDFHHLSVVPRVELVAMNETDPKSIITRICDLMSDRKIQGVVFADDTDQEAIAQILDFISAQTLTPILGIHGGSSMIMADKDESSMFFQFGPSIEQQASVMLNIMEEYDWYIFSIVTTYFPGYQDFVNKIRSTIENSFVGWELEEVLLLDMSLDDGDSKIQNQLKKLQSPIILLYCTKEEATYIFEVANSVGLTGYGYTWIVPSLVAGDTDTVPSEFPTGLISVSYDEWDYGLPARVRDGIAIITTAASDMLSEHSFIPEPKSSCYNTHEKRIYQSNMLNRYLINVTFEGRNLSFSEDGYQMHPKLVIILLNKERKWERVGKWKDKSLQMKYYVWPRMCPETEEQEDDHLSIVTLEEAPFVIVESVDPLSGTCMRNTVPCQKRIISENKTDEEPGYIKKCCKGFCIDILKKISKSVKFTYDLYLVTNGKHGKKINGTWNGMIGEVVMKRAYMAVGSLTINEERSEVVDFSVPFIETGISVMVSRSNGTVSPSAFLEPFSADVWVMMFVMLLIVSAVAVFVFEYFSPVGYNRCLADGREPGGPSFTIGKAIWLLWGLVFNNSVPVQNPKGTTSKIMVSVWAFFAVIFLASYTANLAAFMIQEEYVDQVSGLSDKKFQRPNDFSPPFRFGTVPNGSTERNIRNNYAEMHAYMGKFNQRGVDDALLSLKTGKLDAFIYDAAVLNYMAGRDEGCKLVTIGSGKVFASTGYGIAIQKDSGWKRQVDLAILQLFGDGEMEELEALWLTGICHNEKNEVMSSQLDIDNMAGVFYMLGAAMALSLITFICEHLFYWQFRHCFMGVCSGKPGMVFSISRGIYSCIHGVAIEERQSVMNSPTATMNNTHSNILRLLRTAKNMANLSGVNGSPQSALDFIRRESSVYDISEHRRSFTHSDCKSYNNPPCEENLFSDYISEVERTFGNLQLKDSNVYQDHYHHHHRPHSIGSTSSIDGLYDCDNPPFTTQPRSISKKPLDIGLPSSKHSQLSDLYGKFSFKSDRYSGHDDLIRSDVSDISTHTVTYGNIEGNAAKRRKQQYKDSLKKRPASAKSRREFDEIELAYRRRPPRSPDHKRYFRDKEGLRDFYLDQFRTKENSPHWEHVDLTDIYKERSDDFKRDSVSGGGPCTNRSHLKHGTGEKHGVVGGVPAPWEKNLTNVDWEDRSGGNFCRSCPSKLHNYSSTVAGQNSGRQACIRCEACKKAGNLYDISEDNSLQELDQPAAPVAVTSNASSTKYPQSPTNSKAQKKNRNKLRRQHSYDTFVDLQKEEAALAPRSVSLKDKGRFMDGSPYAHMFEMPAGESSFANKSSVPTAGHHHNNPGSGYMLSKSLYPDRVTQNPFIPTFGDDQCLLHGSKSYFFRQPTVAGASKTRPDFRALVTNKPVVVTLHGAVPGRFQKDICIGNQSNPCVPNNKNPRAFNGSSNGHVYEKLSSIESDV

GluN1b-GluN2B NMDAR current, TEVC on Xenopus oocytes, Fv2 at 0.1 mg/ml (% of maximum current): 60
B1: Fv2, variable fragment (Fv) of IgG2 (protein)
VH: DVKLQESGGGLVQPGGSLKLSCAASGFTFSSYTMSWVRQTPEKRLEWVAYISNGGGGTYYPDTVKGRFTISRDNAKNTLYLQMNSLKEDTAMYYCARPSRGGSSYWYFDVWGAGTTVTVSS
VL: DIQMTQSPSSLSASLGGKVTITCKASQDINKYIAWYQHKPGKGPRLLIHYTSSLQPGIPSRFSGSGSGRDYSFSISNLEPEDIATYYCLQYDNLYTFGGGTKLEIK
